Patent publication US20110212094A1 (AbbVie / Abbott, published 2011)

T1: Recombinant Human SOST (human, UniProt Q9BQB4 24-213)
T1 construct: R&D reagent in Biacore; also called sclerostin; Human sclerostin (Abbott PR-1261069)
T1 sequence (looked up): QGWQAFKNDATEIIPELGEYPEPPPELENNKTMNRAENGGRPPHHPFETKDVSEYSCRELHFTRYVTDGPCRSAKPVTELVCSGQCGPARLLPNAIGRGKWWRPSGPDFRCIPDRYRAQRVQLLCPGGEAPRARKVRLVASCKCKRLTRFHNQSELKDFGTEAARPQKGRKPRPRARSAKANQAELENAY

B1: DVD1251 (bispecific antibody, human IgG1, kappa)
heavy: not shown
light: DIQMTQSPSSLSASVGDRVTITCRASQSISNNLNWYQQKPGKAPKLLIYYTSRFHSGVPSRFSGSGSGTDFTFTISSLQPEDIATYYCQQEHTLPYTFGQGTKLEIKRTVAAPDIQMTQSPSSLSASVGDRVTITCRASQGIRIDLGWYQQKPGKAPKRLIYAASTLQSGVPSRFSGSGSGTEFIFTISSLQPEDFASYYCLQHKSYPLTFGGGTKVEIKRTVAAPSVFIFPPSDEQLKSGTASVVCLLNNFYPREAKVQWKVDNALQSGNSQESVTEQDSKDSTYSLSSTLTLSKADYEKHKVYACEVTHQGLSSPVTKSFNRGEC
notes: constant regions from vectors V1/V2; also called DVD1251H; DVD1251L
B2: DVD1226 (bispecific antibody, human IgG1, kappa)
heavy: not shown
light: DIVMTQSHKFMSTTVGDRVSITCKASQAVSSAVAWYQQKPGQSPKLLIYWASTRHTGVPDRFTGSGSVTDFTLTIHNLQAEDLALYYCQQHYSTPFTFGSGTKLEIKRTVAAPDVQMIQSPSSLSASLGDIVTMTCQASQGTSINLNWFQQKPGKAPKLLIYGSSNLEDGVPSRFSGSRYGTDFTLTISSLEDEDLATYFCLQHSYLPYTFGGGTKLEIKRTVAAPSVFIFPPSDEQLKSGTASVVCLLNNFYPREAKVQWKVDNALQSGNSQESVTEQDSKDSTYSLSSTLTLSKADYEKHKVYACEVTHQGLSSPVTKSFNRGEC
notes: constant regions from vectors V1/V2; also called DVD1226H; DVD1226L
B3: AB020 (antibody, V domains shown)
VH: QVQLQESGPGLVKPSETLSLTCTVSGFSLIGYDLNWIRQPPGKGLEWIGIIWGDGTTDYNSAVKSRVTISKDTSKNQFSLKLSSVTAADTAVYYCARGGYWYATSYYFDYWGQGTLVTVSS
VL: DIQMTQSPSSLSASVGDRVTITCRASQSISNNLNWYQQKPGKAPKLLIYYTSRFHSGVPSRFSGSGSGTDFTFTISSLQPEDIATYYCQQEHTLPYTFGQGTKLEIKR
notes: Parent anti-NGF antibody; also called NGF; AB020VH
B4: DVD1233 (bispecific antibody, human IgG1, kappa)
heavy: not shown
light: DIQMTQSPSSLSASVGDRVTITCRASQSISNNLNWYQQKPGKAPKLLIYYTSRFHSGVPSRFSGSGSGTDFTFTISSLQPEDIATYYCQQEHTLPYTFGQGTKLEIKRTVAAPDIVMTQSHKFMSTTVGDRVSITCKASQAVSSAVAWYQQKPGQSPKLLIYWASTRHTGVPDRFTGSGSVTDFTLTIHNLQAEDLALYYCQQHYSTPFTFGSGTKLEIKRTVAAPSVFIFPPSDEQLKSGTASVVCLLNNFYPREAKVQWKVDNALQSGNSQESVTEQDSKDSTYSLSSTLTLSKADYEKHKVYACEVTHQGLSSPVTKSFNRGEC
notes: constant regions from vectors V1/V2; also called DVD1233H; DVD1233L

How the values were obtained:
Recombinant Human β-NGF [1] = biological target: T2, Recombinant Human β-NGF (human, UniProt P01138 122-239, limits assumed); test: Biacore SPR
T2 construct: Bought reagent used in the Biacore analyses
Procedure: (§1) The BIACORE assay (Biacore, Inc, Piscataway, N.J.) determines the affinity of antibodies or DVD-Ig with kinetic measurements of on-rate and off-rate constants. Binding of antibodies or DVD-Ig to a target antigen (for example, a purified recombinant target antigen) is determined by surface plasmon resonance-based measurements with a Biacore® 1000 or 3000 instrument (Biacore® AB, Uppsala, Sweden) using running HBS-EP (10 mM HEPES [pH 7.4], 150 mM NaCl, 3 mM EDTA, and 0.005% surfactant P20) at 25° C. All chemicals are obtained from Biacore® AB (Uppsala, Sweden) or otherwise from a different source as described in the text. For example, approximately 5000 RU of goat anti-mouse IgG, (Fcγ), fragment specific polyclonal antibody (Pierce Biotechnology Inc, Rockford, Ill.) diluted in 10 mM sodium acetate (pH 4.5) is directly immobilized across a CM5 research grade biosensor chip using a standard amine coupling kit according to manufacturer's instructions and procedures at 25 μg/ml. Unreacted moieties on the biosensor surface are blocked with ethanolamine. Modified carboxymethyl dextran surface in flowcell 2 and 4 is used as a reaction surface. Unmodified carboxymethyl dextran without goat anti-mouse IgG in flow cell 1 and 3 is used as the reference surface. For kinetic analysis, rate equations derived from the 1:1 Langmuir binding model are fitted simultaneously to association and dissociation phases of all eight injections (using global fit analysis) with the use of Biaevaluation 4.0.1 software. Purified antibodies or DVD-Ig are diluted in HEPES-buffered saline for capture across goat anti-mouse IgG specific reaction surfaces. Antibodies or DVD-Ig to be captured as a ligand (25 μg/ml) are injected over reaction matrices at a flow rate of 5 μl/min. The association and dissociation rate constants, kₘ (M⁻¹s⁻¹) and koff (s⁻¹) are determined under a continuous flow rate of 25 μl/min. Rate constants are derived by making kinetic binding measurements at different antigen concentrations ranging from 10-200 nM. The equilibrium dissociation constant (M) of the reaction between antibodies or DVD-Igs and the target antigen is then calculated from the kinetic rate constants by the following formula: KD=koff/kₒₙ. Binding is recorded as a function of time and kinetic rate constants are calculated.

[2] = biological target: T3, Recombinant Human TNF-α/TNFSF1A (human, UniProt P01375 77-233); test: Biacore SPR
T3 construct: Bought reagent for Biacore; also called huTNFα
Procedure: as §1

[3] = biological target: NGF (Neuroscreen-1 bioassay); test: cell-based or functional assay
[4] = biological target: T3, Recombinant Human TNF-α/TNFSF1A; test: cell-based or functional assay
Recombinant Human SOST = biological target: T1, Recombinant Human SOST; test: Biacore SPR
Procedure: as §1

Recombinant Human β-NGF [5] = biological target: T2, Recombinant Human β-NGF; test: Biacore SPR; 25 C, HBS-EP pH 7.4; antibody captured on the chip, antigen 10-200 nM in flow
Procedure: The BIACORE assay (Biacore, Inc, Piscataway, N.J.) determines the affinity of antibodies or DVD-Ig with kinetic measurements of on-rate and off-rate constants. Binding of antibodies or DVD-Ig to a target antigen (for example, a purified recombinant target antigen) is determined by surface plasmon resonance-based measurements with a Biacore® 1000 or 3000 instrument (Biacore® AB, Uppsala, Sweden) using running HBS-EP (10 mM HEPES [pH 7.4], 150 mM NaCl, 3 mM EDTA, and 0.005% surfactant P20) at 25° C. All chemicals are obtained from Biacore® AB (Uppsala, Sweden) or otherwise from a different source as described in the text. […] The association and dissociation rate constants, kₘ (M⁻¹s⁻¹) and koff (s⁻¹) are determined under a continuous flow rate of 25 μl/min. […] The equilibrium dissociation constant (M) of the reaction between antibodies or DVD-Igs and the target antigen is then calculated from the kinetic rate constants by the following formula: KD=koff/kₒₙ. Binding is recorded as a function of time and kinetic rate constants are calculated.

T3 sequence (P01375 77-233 limits assumed): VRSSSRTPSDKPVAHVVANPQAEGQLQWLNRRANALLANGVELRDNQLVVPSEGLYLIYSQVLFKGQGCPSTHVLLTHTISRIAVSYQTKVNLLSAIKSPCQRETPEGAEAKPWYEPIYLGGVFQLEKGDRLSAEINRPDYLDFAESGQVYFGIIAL
T2 sequence (P01138 122-239 limits assumed): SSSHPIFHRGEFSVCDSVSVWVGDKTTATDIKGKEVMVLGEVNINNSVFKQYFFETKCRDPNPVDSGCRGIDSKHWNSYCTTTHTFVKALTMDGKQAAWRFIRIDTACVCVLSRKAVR

Binder	Kd (Recombinant Human β-NGF [1]) [nM]	koff (Recombinant Human β-NGF [1]) [s⁻¹]	kon (Recombinant Human β-NGF [1]) [M⁻¹ s⁻¹]	Kd [2] [nM]	koff [2] [s⁻¹]	kon [2] [M⁻¹ s⁻¹]	N-Terminal VD NGF Inhibition Assay EC50 pM (ERK1/2 phosphorylation, Neuroscreen-1 cells) [3] [pM]	C-terminal VD TNFα Neutralization Assay EC50 nM (L929 cells) [4] [nM]	Kd (Recombinant Human SOST) [nM]	koff (Recombinant Human SOST) [s⁻¹]	kon (Recombinant Human SOST) [M⁻¹ s⁻¹]	N-terminal VD TNFα Neutralization Assay EC50 nM (L929 cells) [4] [nM]	Kd (Recombinant Human β-NGF [5]) [nM]	NGF Inhibition Assay EC50 pM (ERK1/2 phosphorylation, Neuroscreen-1 cells) [3] [pM]
B1	0.0139	1.17e-05	842000	0.0894	5.73e-05	641000	95	8.02	–	–	–	–	–	–
B2	–	–	–	0.0288	0.000116	4.02e+06	–	–	2.71	0.000199	73400	0.0409	–	–
B3	–	4.08e-06	606000	–	–	–	–	–	–	–	–	–	0.00673	53
B4	0.0217	1.82e-05	840000	0.115	2.82e-05	244000	62	42.4	–	–	–	–	–	–
